Our source for the Km, kcat and kcat/Km values is PMC5568139, “Variants of sequence family B Thermococcus kodakaraensis DNA polymerase with increased mismatch extension selectivity” (PLoS ONE, 2017).

Usually Km stands for the substrate concentration at which the rate is half of its maximum. Broadly, the kcat is the maximal rate divided by the concentration of active sites. As a reminder, the kcat/Km is the second-order rate constant that governs catalysis at low substrate concentration.

Substrate in this data set: Nc1nc2c(ncn2[C@H]2C[C@H](O)[C@@H](COP(=O)(O)OP(=O)(O)OP(=O)(O)O)O2)c(=O)[nH]1
The data set can be described thus: purified protein. The data set is classed as biochemical, Thermococcus kodakarensis. As to conditions: matched primer-template C-G (prothrombin factor II), Tris-HCl pH 8, 1.5 mM MgCl2, temperature not stated for kinetics (55 °C in primer extension assay).

B1: KOD pol wildtype (3'-5'-exonuclease deficient Thermococcus kodakaraensis DNA polymerase) (Thermococcus kodakarensis KOD1; D141A/E143A) (protein)
chain 1: MILDTDYITEDGKPVIRIFKKENGEFKIEYDRTFEPYFYALLKDDSAIEEVKKITAERHGTVVTVKRVEKVQKKFLGRPVEVWKLYFTHPQDVPAIRDKIREHPAVIDIYEYDIPFAKRYLIDKGLVPMEGDEELKMLAFAIATLYHEGEEFAEGPILMISYADEEGARVITWKNVDLPYVDVVSTEREMIKRFLRVVKEKDPDVLITYNGDNFDFAYLKKRCEKLGINFALGRDGSEPKIQRMGDRFAVEVKGRIHFDLYPVIRRTINLPTYTLEAVYEAVFGQPKEKVYAEEITTAWETGENLERVARYSMEDAKVTYELGKEFLPMEAQLSRLIGQSLWDVSRSSTGNLVEWFLLRKAYERNELAPNKPDEKELARRRQSYEGGYVKEPERGLWENIVYLDFR
chain 2: SLYPSIIITHNVSPDTLNREGCKEYDVAPQVGHRFCKDFPGFIPSLLGDLLEERQKIKKKMKATIDPIERKLLDYRQRAIKILAN
chain 3: SYYGYYGYARARWYCKECAESVTAWGREYITMTIKEIEEKYGFKVIYSDTDGFFATIPGADAETVKKKAMEFLKYINAKLPGALELEYEGFYKRGFFVTKKKYAVIDEEGKITTRGLEIVRRDWSEIAKETQARVLEALLKDGDVEKAVRIVKEVTEKLSKYEVPPEKLVIHEQITRDLKDYKATGPHVAVAKRLAARGVKIRPGTVISYIVLKGSGRIGDRAIPFDEFDPTKHKYDAEYYIENQVLPAVERILRAFGYRKEDLRYQKTRQVGLSAWLKPKGT
notes: mature intein-free polymerase expected (precursor holds two inteins); pET21a, E. coli BL21(DE3), Ni resin
With B1, the Km is 0.168 ± 0.04 µM, the kcat is 0.81 ± 0.12 s⁻¹ and the kcat/Km was found to be 4.8e+06 ± 1.9e+06 M⁻¹ s⁻¹.

B2: KOD pol wildtype (3'-5'-exonuclease deficient Thermococcus kodakaraensis DNA polymerase) (Thermococcus kodakarensis KOD1; D141A/E143A/R1398C) (protein)
chain 1: MILDTDYITEDGKPVIRIFKKENGEFKIEYDRTFEPYFYALLKDDSAIEEVKKITAERHGTVVTVKRVEKVQKKFLGRPVEVWKLYFTHPQDVPAIRDKIREHPAVIDIYEYDIPFAKRYLIDKGLVPMEGDEELKMLAFAIATLYHEGEEFAEGPILMISYADEEGARVITWKNVDLPYVDVVSTEREMIKRFLRVVKEKDPDVLITYNGDNFDFAYLKKRCEKLGINFALGRDGSEPKIQRMGDRFAVEVKGRIHFDLYPVIRRTINLPTYTLEAVYEAVFGQPKEKVYAEEITTAWETGENLERVARYSMEDAKVTYELGKEFLPMEAQLSRLIGQSLWDVSRSSTGNLVEWFLLRKAYERNELAPNKPDEKELARRRQSYEGGYVKEPERGLWENIVYLDFR
chain 2: SLYPSIIITHNVSPDTLNREGCKEYDVAPQVGHRFCKDFPGFIPSLLGDLLEERQKIKKKMKATIDPIERKLLDYRQRAIKILAN
chain 3: SYYGYYGYACARWYCKECAESVTAWGREYITMTIKEIEEKYGFKVIYSDTDGFFATIPGADAETVKKKAMEFLKYINAKLPGALELEYEGFYKRGFFVTKKKYAVIDEEGKITTRGLEIVRRDWSEIAKETQARVLEALLKDGDVEKAVRIVKEVTEKLSKYEVPPEKLVIHEQITRDLKDYKATGPHVAVAKRLAARGVKIRPGTVISYIVLKGSGRIGDRAIPFDEFDPTKHKYDAEYYIENQVLPAVERILRAFGYRKEDLRYQKTRQVGLSAWLKPKGT
notes: as for B1
Consider B2, for which the Michaelis-Menten constant (Km) was determined as 96 ± 21 µM, the catalytic constant (kcat) came to 8.3 ± 0.6 s⁻¹ and the kcat/Km was determined as 90000 ± 20000 M⁻¹ s⁻¹.
